Publication PMC8096149
pKd: −log10 of the molar value.

How the values were obtained:
Assay in all cases: flow cytometry on cells
[1] = target: Bovine2.2 L93TAG scFv with AzF
[2] = target: Bovine2.2 L93TAG scFv with OPG
[3] = target: Bovine2.2 H31TAG scFv with OPG
[4] = target: Bovine2.2 H31TAG scFv with AzF
[5] = target: Bovine2.2 H54TAG scFv with AzF
[6] = target: Bovine2.2 H54TAG scFv with OPG
[7] = target: Donkey1.1 H31TAG scFv with OPG
[8] = target: Donkey1.1 L93TAG scFv with OPG
[9] = target: Donkey1.1 L93TAG scFv with AzF
[10] = target: Donkey1.1 H54TAG scFv with OPG
[11] = target: Donkey1.1 H31TAG scFv with AzF
[12] = target: Donkey1.1 H31TAG scFv with AzMF
[13] = target: Donkey1.1 H54TAG scFv with AzF

pKd [1] | pKd [2] | pKd [3] | pKd [4] | pKd [5] | pKd [6] | pKd [7] | antigen binding level relative to wild-type at 200 nM IgG (% of wild-type) [7] | pKd [8] | pKd [9] | pKd [10] | pKd [11] | antigen binding level relative to wild-type at 200 nM IgG (% of wild-type) [11] | antigen binding level relative to wild-type at 200 nM IgG (% of wild-type) [12] | pKd [13] | Substance
6.48 | 6.75 | 6.22 | 6.26 | 6.42 | 6.74 |  |  |  |  |  |  |  |  |  | biotinylated bovine IgG (natural protein)
 |  |  |  |  |  | 6.44 | < 10 | 7.35 | 6.90 | 7.25 | 6.25 | < 10 | < 10 | 6.67 | biotinylated donkey IgG (natural protein)
